From US20080280346A1 (published 2008) come the findings set out here.

This experiment has as its target T1, α-amylase.
T1 construct: Coated on ELISA plates at 200 µg/ml in PBS
The experiment is described as follows: ELISA, plate coated with α-amylase, dimer compared with monomeric VamyHlyA.

B1: VamyZHlyA (VHH)
VHH: QVQLVESWGGSVQAGGSLRLSCTAPGFTSNSCRMDWYRQAAGKQREWVSSISTDGRTSYADSVKGRFTISKDKAKDTVYLQMNSLKPEDTAIYYCAVRTNGYRPQSHEFRYWGPGTQVTVSS
modifications: Non-covalent homodimer through the GCN4 leucine zipper; one monomer chain is given.
notes: also called dimeric VHH-HlyA polypeptide; VHH-ZEHlyA hybrid
Take B1: the “fold increase in functional affinity (avidity) against the monomeric form” value turned out to be 10 fold.
